Measurements as given in the supplement of paper PMC9112550, “Optimization of the antimicrobial peptide Bac7 by deep mutational scanning” (BMC Biology, 2022).

System: Escherichia coli TOP10
Test: shrunken log2 fold change of peptide-encoding DNA abundance (4.5 h post-induction vs induction); higher = less antimicrobial activity (less host growth inhibition)
Conditions: time post-induction: 4.5 h; library: site-saturation at positions 5, 18, 19, 20
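Also: peptides expressed intracellularly from a pBAD plasmid library in pooled LB shake-flask culture, induced with 0.3% L-arabinose, DNA abundance read by NGS, three biological replicates, DESeq2 with apeglm shrinkage.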

Row | Sequence | shrunken log2 fold change
1 | RRIRGRPPRLPRPRPRPVELPRP | 0.354
2 | RRIRGRPPRLPRPRPRPVGVPRP | 1.08
3 | RRIRGRPPRLPRPRPRPVHHPRP | -0.0799
4 | RRIRGRPPRLPRPRPRPVHIPRP | -0.165
5 | RRIRGRPPRLPRPRPRPVHNPRP | 0.259
6 | RRIRGRPPRLPRPRPRPVHRPRP | -0.0492
7 | RRIRGRPPRLPRPRPRPVISPRP | 0.623
8 | RRIRGRPPRLPRPRPRPVIWPRP | 0.886
9 | RRIRGRPPRLPRPRPRPVLGPRP | 0.343
10 | RRIRGRPPRLPRPRPRPVMNPRP | 0.434
11 | RRIRGRPPRLPRPRPRPVMVPRP | 0.128
12 | RRIRGRPPRLPRPRPRPVNMPRP | 0.189
13 | RRIRGRPPRLPRPRPRPVTGPRP | 0.21
14 | RRIRGRPPRLPRPRPRPVTKPRP | 0.661
15 | RRIRGRPPRLPRPRPRPVVKPRP | 0.246
16 | RRIRGRPPRLPRPRPRPVVLPRP | 0.4
17 | RRIRGRPPRLPRPRPRPVYFPRP | -0.0244
18 | RRIRGRPPRLPRPRPRPWADPRP | 0.142
19 | RRIRGRPPRLPRPRPRPWCAPRP | 0.407
20 | RRIRGRPPRLPRPRPRPWCEPRP | 0.0333
21 | RRIRGRPPRLPRPRPRPWCGPRP | 0.58
22 | RRIRGRPPRLPRPRPRPWCQPRP | 0.224

Row | Sequence | shrunken log2 fold change
23 | RRIRGRPPRLPRPRPRPWDPPRP | -0.11
24 | RRIRGRPPRLPRPRPRPWEQPRP | 0.724
25 | RRIRGRPPRLPRPRPRPWGDPRP | 0.41
26 | RRIRGRPPRLPRPRPRPWGRPRP | 0.413
27 | RRIRGRPPRLPRPRPRPWGTPRP | 0.0721
28 | RRIRGRPPRLPRPRPRPWHEPRP | -0.357
29 | RRIRGRPPRLPRPRPRPWKDPRP | 0.000655
30 | RRIRGRPPRLPRPRPRPWLRPRP | 0.306
31 | RRIRGRPPRLPRPRPRPWMRPRP | 0.444
32 | RRIRGRPPRLPRPRPRPWNHPRP | -0.052
33 | RRIRGRPPRLPRPRPRPWNMPRP | -0.0271
34 | RRIRGRPPRLPRPRPRPWQHPRP | -0.0318
35 | RRIRGRPPRLPRPRPRPWRIPRP | -0.15
36 | RRIRGRPPRLPRPRPRPWTYPRP | 0.0864
37 | RRIRGRPPRLPRPRPRPWVAPRP | -0.026
38 | RRIRGRPPRLPRPRPRPWVMPRP | 0.0476
39 | RRIRGRPPRLPRPRPRPWWIPRP | 0.0656
40 | RRIRGRPPRLPRPRPRPWWVPRP | 0.0839
41 | RRIRGRPPRLPRPRPRPWYYPRP | -0.148
42 | RRIRGRPPRLPRPRPRPYACPRP | -0.00589
43 | RRIRGRPPRLPRPRPRPYALPRP | 0.0375
44 | RRIRGRPPRLPRPRPRPYCYPRP | 0.0406

Row | Sequence | shrunken log2 fold change
45 | RRIRGRPPRLPRPRPRPYDSPRP | 0.0118
46 | RRIRGRPPRLPRPRPRPYFWPRP | 0.0833
47 | RRIRGRPPRLPRPRPRPYGYPRP | 0.158
48 | RRIRGRPPRLPRPRPRPYIHPRP | -0.252
49 | RRIRGRPPRLPRPRPRPYISPRP | -0.325
50 | RRIRGRPPRLPRPRPRPYNCPRP | -0.0269
51 | RRIRGRPPRLPRPRPRPYNMPRP | -0.531
52 | RRIRGRPPRLPRPRPRPYQQPRP | 0.0771
53 | RRIRGRPPRLPRPRPRPYREPRP | 0.00752
54 | RRIRGRPPRLPRPRPRPYSNPRP | 0.0659
55 | RRIRGRPPRLPRPRPRPYSSPRP | -0.223
56 | RRIRGRPPRLPRPRPRPYTMPRP | -0.342
57 | RRIRGRPPRLPRPRPRPYTVPRP | 0.0498
58 | RRIRGRPPRLPRPRPRPYVGPRP | 0.0053
59 | RRIRGRPPRLPRPRPRPYVLPRP | -0.114
60 | RRIRGRPPRLPRPRPRPYWDPRP | -0.26
61 | RRIRGRPPRLPRPRPRPYYLPRP | -0.791
62 | RRIRGRPPRLPRPRPRPYYVPRP | -0.0871
63 | RRIRHRPPRLPRPRPRPADQPRP | 0.0188
64 | RRIRHRPPRLPRPRPRPAEAPRP | -0.0896
65 | RRIRHRPPRLPRPRPRPAEDPRP | 0.262
66 | RRIRHRPPRLPRPRPRPAEEPRP | 0.175

Row | Sequence | shrunken log2 fold change
67 | RRIRHRPPRLPRPRPRPAFSPRP | -0.0483
68 | RRIRHRPPRLPRPRPRPAGYPRP | -0.0739
69 | RRIRHRPPRLPRPRPRPAHEPRP | 0.0538
70 | RRIRHRPPRLPRPRPRPAHLPRP | 0.0167
71 | RRIRHRPPRLPRPRPRPAIIPRP | -0.113
72 | RRIRHRPPRLPRPRPRPAIYPRP | -0.798
73 | RRIRHRPPRLPRPRPRPALQPRP | 0.0339
74 | RRIRHRPPRLPRPRPRPAMDPRP | -0.221
75 | RRIRHRPPRLPRPRPRPAMEPRP | 0.0691
76 | RRIRHRPPRLPRPRPRPANQPRP | -0.0712
77 | RRIRHRPPRLPRPRPRPANRPRP | -0.129
78 | RRIRHRPPRLPRPRPRPAPIPRP | 0.31
79 | RRIRHRPPRLPRPRPRPAPKPRP | -0.164
80 | RRIRHRPPRLPRPRPRPAQMPRP | 0.127
81 | RRIRHRPPRLPRPRPRPASRPRP | 0.103
82 | RRIRHRPPRLPRPRPRPASVPRP | -0.00985
83 | RRIRHRPPRLPRPRPRPAVPPRP | 0.0133
84 | RRIRHRPPRLPRPRPRPAVTPRP | -0.1
85 | RRIRHRPPRLPRPRPRPAWTPRP | -0.136
86 | RRIRHRPPRLPRPRPRPAYHPRP | -0.274
87 | RRIRHRPPRLPRPRPRPAYPPRP | -0.37
88 | RRIRHRPPRLPRPRPRPCATPRP | 0.0959

Row | Sequence | shrunken log2 fold change
89 | RRIRHRPPRLPRPRPRPCCKPRP | 1.89
90 | RRIRHRPPRLPRPRPRPCDKPRP | -0.113
91 | RRIRHRPPRLPRPRPRPCESPRP | 0.0295
92 | RRIRHRPPRLPRPRPRPCFKPRP | -1.25
93 | RRIRHRPPRLPRPRPRPCGLPRP | -0.0199
94 | RRIRHRPPRLPRPRPRPCGSPRP | -0.153
95 | RRIRHRPPRLPRPRPRPCLGPRP | 0.0158
96 | RRIRHRPPRLPRPRPRPCLMPRP | -0.0298
97 | RRIRHRPPRLPRPRPRPCLVPRP | 0.214
98 | RRIRHRPPRLPRPRPRPCMAPRP | -0.213
99 | RRIRHRPPRLPRPRPRPCNFPRP | -0.74
100 | RRIRHRPPRLPRPRPRPCPEPRP | 0.037
101 | RRIRHRPPRLPRPRPRPCQVPRP | -0.345
102 | RRIRHRPPRLPRPRPRPCRSPRP | -0.0622
103 | RRIRHRPPRLPRPRPRPCTCPRP | -0.0115
104 | RRIRHRPPRLPRPRPRPCTGPRP | 0.00233
105 | RRIRHRPPRLPRPRPRPCVGPRP | 0.116
106 | RRIRHRPPRLPRPRPRPCVIPRP | -0.0839
107 | RRIRHRPPRLPRPRPRPCWEPRP | 0.153
108 | RRIRHRPPRLPRPRPRPCWLPRP | -0.0661
109 | RRIRHRPPRLPRPRPRPDAHPRP | -0.119
